Experiments:
[1] = tested on: H-NS (Edwardsiella piscicida EIB202); assay: competition EMSA; details: EMSA: 20 ng Cy5 probe, 20 mM Tris pH 8.0, 150 mM NaCl, 0.1 mM DTT, 0.1 mM EDTA, 200 ng poly(dI:dC), 25 C, 30 min; 10% PAGE in Tris-glycine at 4 C
[2] = tested on: H-NS K120ace (Edwardsiella piscicida EIB202); assay: competition EMSA; details: EMSA: 20 ng Cy5 probe, 20 mM Tris pH 8.0, 150 mM NaCl, 0.1 mM DTT, 0.1 mM EDTA, 200 ng poly(dI:dC), 25 C, 30 min; 10% PAGE in Tris-glycine at 4 C

PesrB (esrB promoter)
binding signal (% H-NS-bound DNA lost) [1]: 43
binding signal (% H-NS K120ace-bound DNA lost) [2]: 87

— paper PMC10899749
